In the RNAGym collection of RNA variant scans (doi:10.1021/acssynbio.7b00057):

B1: Pistol ribozyme (parent)
chain: GGGUCGUUGUUCCAUAAUCGCGUGGAUAUGGCACGCAAGUUUCUACCGGGCACCGUAAAUGUCCGACUGGAGCCGUUCGGGCGGCUAUAAACAGACCUCAGGCCCGAAGCGUGGCGGCACCUGCCGCCGGUGGUAAAAAAGAUCGGAAGAGCACACGUCU

Variants of: B1
Assay: aptazyme ON/OFF ratio, guanine; higher = stronger switching; co-transcriptional cleavage with and without guanine

Row | Variant | aptazyme ON/OFF ratio
1 | U8G G9U U10A U11A C12G C13A | 1.2
2 | U8G G9U U10A U11A C12G C13U | 1.22
3 | U8G G9U U10A U11A C12G C13G | 1.18
4 | U8G G9C U11G C12U C13G | 1.13
5 | U8G G9C U11G C12U C13U | 1.25
6 | U8G G9C U11G C12U C13A | 1.1
7 | U8G G9U C12A C13G | 1.22
8 | U8G G9U C12A C13U | 1.07
9 | U8G G9U C12A C13A | 1.41
10 | U8G G9U U10G U11G C12A C13A | 1.07
11 | U8G G9U U10G U11G C12A C13U | 1.05
12 | U8G G9U U10G U11G C12A C13G | 1.08
13 | U8G G9U U10C U11A | 1.27
14 | U8G G9U U10C U11C | 1.05
15 | U8G G9U U10C U11G | 1.15
16 | U8G G9U U10A C12G C13U | 1.23
17 | U8G G9U U10A C12G C13A | 1.2
18 | U8G G9U U10A C12G C13G | 1.12
19 | U8G G9U U10G U11G C12G C13U | 1.09
20 | U8G G9U U10G U11G C12G C13A | 1.07
21 | U8G G9U U10G U11G C12G C13G | 1.17
22 | U8G G9C U11G C12G C13U | 1.11
23 | U8G G9C U11G C12G C13G | 1.07
24 | U8G G9C U11G C12G C13A | 1.09

Row | Variant | aptazyme ON/OFF ratio
25 | U8G G9C U10G U11G C12U | 1.23
26 | U8G G9C U10G U11G C12G | 1.31
27 | U8G G9U | 3.25
28 | U8G G9U U11G C12A C13A | 1.14
29 | U8G G9U U11G C12A C13U | 1.21
30 | U8G G9U U11G C12A C13G | 1.19
31 | U8G G9U U10A U11C C12G | 1.1
32 | U8G G9U U10A U11C C12U | 1.05
33 | U8G G9U U10A U11C C12A | 1.12
34 | U8G G9U U10C U11A C12U | 1.11
35 | U8G G9U U10C U11A C12A | 1.14
36 | U8G G9U U10C U11A C12G | 1.12
37 | U8G G9U U10G U11C C12G C13U | 1.02
38 | U8G G9U U10G U11C C12G C13G | 1.03
39 | U8G G9U U10G U11C C12G C13A | 1.04
40 | U8G G9U U10A C12A C13G | 1.18
41 | U8G G9U U10A C12A C13U | 1.25
42 | U8G G9U U10A C12A C13A | 1.21
43 | U8G G9U U10A C12U C13A | 1.2
44 | U8G G9U U10A C12U C13U | 1.17
45 | U8G G9U U10A C12U C13G | 1.19
46 | U8G U10A C12G C13A | 1.16
47 | U8G U10A C12G C13G | 1.14
48 | U8G U10A C12G C13U | 1.28

Row | Variant | aptazyme ON/OFF ratio
49 | U8G G9U C12G C13G | 1.27
50 | U8G G9U C12G C13A | 1.3
51 | U8G G9U C12G C13U | 1.31
52 | U8G G9U U10G C12G | 1.02
53 | U8G G9U U10G C12A | 1.04
54 | U8G G9U U10G C12U | 1.02
55 | U8G G9U U10G U11C C13U | 1.03
56 | U8G G9U U10G U11C C13A | 1.02
57 | U8G G9U U10G U11C C13G | 1.04
58 | U8G G9U U10C U11G C12U C13U | 1.24
59 | U8G G9U U10C U11G C12U C13G | 1.09
60 | U8G G9U U10C U11G C12U C13A | 1.09
61 | U8G U10A U11A C12A | 1.12
62 | U8G G9C U11C C12A C13G | 1.04
63 | U8G G9C U11C C12A C13A | 1.04
64 | U8G G9C U11C C12A C13U | 1.04
65 | U8G G9U U10C U11C C12G C13A | 1.07
66 | U8G G9U U10C U11C C12G C13G | 1.1
67 | U8G G9U U10C U11C C12G C13U | 1.09
68 | U8G U10A U11A | 1.71
69 | U8G G9U U10G U11A C13G | 1.04
70 | U8G G9U U10G U11A C13A | 1.01
71 | U8G G9U U10G U11A C13U | 1.03
72 | U8G G9C U11A C13G | 1.03

Row | Variant | aptazyme ON/OFF ratio
73 | U8G G9C U11A C13A | 1.04
74 | U8G G9C U11A C13U | 1.05
75 | U8G G9C U11G C13A | 1.05
76 | U8G G9C U11G C13G | 1.04
77 | U8G G9C U11G C13U | 1.06
78 | U8G G9U U10A U11G C12A | 1.12
79 | U8G G9U U10A U11G C12U | 1.24
80 | U8G G9U U10A U11G C12G | 1.27
81 | U8G G9U U10A U11C C12A C13A | 1.1
82 | U8G G9U U10A U11C C12A C13U | 1.16
83 | U8G G9U U10A U11C C12A C13G | 1.1
84 | U8G G9C U11A C12A C13U | 1.06
85 | U8G G9C U11A C12A C13A | 1.07
86 | U8G G9C U11A C12A C13G | 1.05
87 | U8G G9U U10A U11C C12U C13U | 1.05
88 | U8G G9U U10A U11C C12U C13A | 1.08
89 | U8G G9U U10A U11C C12U C13G | 1.05
90 | U8G U10A C13G | 1.12
91 | U8G U10A C13U | 1.19
92 | U8G U10A C13A | 1.14
93 | U8G G9U U10A | 1.2
94 | U8G G9U U10C | 1.51
95 | U8G G9U U10G | 1.07
96 | U8G G9U U11C C12A C13G | 1.08

Row | Variant | aptazyme ON/OFF ratio
97 | U8G G9U U11C C12A C13U | 1.11
98 | U8G G9U U11C C12A C13A | 1.09
99 | U8G G9U U10C U11A C12U C13A | 1.08
100 | U8G G9U U10C U11A C12U C13U | 1.08
101 | U8G G9U U10C U11A C12U C13G | 1.11
102 | U8G U10A C12U C13A | 1.32
103 | U8G U10A C12U C13U | 1.3
104 | U8G U10A C12U C13G | 1.32
105 | U8G G9U U10G U11A C12U C13A | 1.05
106 | U8G G9U U10G U11A C12U C13G | 1.05
107 | U8G G9U U10G U11A C12U C13U | 1.06
108 | U8G G9U U11G C12U | 1.27
109 | U8G G9U U11G C12G | 1.39
110 | U8G G9U U11G C12A | 1.32
111 | U8G G9U U11A | 1.73
112 | U8G G9U U11G | 1.36
113 | U8G G9U U11C | 1.24
114 | U8G G9U U10G U11A | 1.09
115 | U8G G9U U10G U11C | 1.02
116 | U8G G9U U10G U11G | 1.07
117 | U8G G9U U10A U11A C12A C13U | 1.22
118 | U8G G9U U10A U11A C12A C13G | 1.16
119 | U8G G9U U10A U11A C12A C13A | 1.15
120 | U8G G9C U10G U11G C12G C13U | 1.3

Row | Variant | aptazyme ON/OFF ratio
121 | U8G G9C U10G U11G C12G C13G | 1.1
122 | U8G G9C U10G U11G C12G C13A | 1.24
123 | U8G G9U U11C C12G | 1.12
124 | U8G G9U U11C C12A | 1.12
125 | U8G G9U U11C C12U | 1.04
126 | U8G G9U C13U | 1.41
127 | U8G G9U C13A | 1.39
128 | U8G G9U C13G | 1.1
129 | U8G G9U U10C U11G C12A | 1.12
130 | U8G G9U U10C U11G C12U | 1.19
131 | U8G G9U U10C U11G C12G | 1.25
132 | U8G G9U U10A U11G C13G | 1.03
133 | U8G G9U U10A U11G C13U | 1.04
134 | U8G G9U U10A U11G C13A | 1.09
135 | U8G G9U U10C U11A C13A | 1.06
136 | U8G G9U U10C U11A C13G | 1.04
137 | U8G G9U U10C U11A C13U | 1.12
138 | U8G G9C U11G C12U | 1.22
139 | U8G G9C U11G C12A | 1.11
140 | U8G G9C U11G C12G | 1.15
141 | U8G G9U U10G U11A C12A C13G | 1.03
142 | U8G G9U U10G U11A C12A C13A | 1.04
143 | U8G G9U U10G U11A C12A C13U | 1.03
144 | U8G G9C U11C C12U C13A | 1.03

Row | Variant | aptazyme ON/OFF ratio
145 | U8G G9C U11C C12U C13U | 1.04
146 | U8G G9C U11C C12U C13G | 1.03
147 | U8G G9U U10C C12U C13U | 1.2
148 | U8G G9U U10C C12U C13G | 1.08
149 | U8G G9U U10C C12U C13A | 1.11
150 | U8G G9U U10G C12A C13U | 1.05
151 | U8G G9U U10G C12A C13A | 1.03
152 | U8G G9U U10G C12A C13G | 1.04
153 | U8G G9U C12U C13G | 1.28
154 | U8G G9U C12U C13A | 1.22
155 | U8G G9U C12U C13U | 1.14
156 | U8G G9U U10G C12G C13A | 1.02
157 | U8G G9U U10G C12G C13U | 1.02
158 | U8G G9U U10G C12G C13G | 1.05
159 | U8G G9U U10C U11C C13G | 1.04
160 | U8G G9U U10C U11C C13U | 1.02
161 | U8G G9U U10C U11C C13A | 1.04
162 | U8G G9U U10G U11C C12A C13A | 1.02
163 | U8G G9U U10G U11C C12A C13G | 1.02
164 | U8G G9U U10G U11C C12A C13U | 1.03
165 | U8G G9C U10G U11G C13U | 1.12
166 | U8G G9C U10G U11G C13G | 1.12
167 | U8G G9C U10G U11G C13A | 1.16
